This is an account of results in patent publication US20060057619A1.

In the test the target is canine Met (canine) (UniProt Q75ZY9). In words: cell-based or functional assay.

“recombinant human HGF (from UniProt P14210 32-728) (ligand)” showed a phosphorylation of canine Met in OSA cell lines of 50 ng/mL.
